Experimental data: patent publication US9994881B2, “Functionalized carboxylic acids and alcohols by reverse fatty acid oxidation in engineered microbes” (William Marsh Rice University, priority 2011, dated 2018)
Marks after values point to notes of the source that are not given here.

What was measured:
[1] = target: T1, E. coli YciA (acyl-CoA thioesterase, NP_415769.1), wild type (Escherichia coli, UniProt P0A8Z0); experiment: Thioesterase kinetics (production of TNB at 412 nm); settings: pH 7.5, 200 mM KCl, DTNB, 25° C.
T1 sequence (P0A8Z0 1-132): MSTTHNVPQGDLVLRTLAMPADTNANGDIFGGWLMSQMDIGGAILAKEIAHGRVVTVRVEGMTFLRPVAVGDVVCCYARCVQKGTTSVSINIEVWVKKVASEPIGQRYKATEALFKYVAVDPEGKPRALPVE
Method: Cells were lysed using Bacterial Protein Extraction Reagent (B-PER) (Thermo Scientific, Waltham, Mass.) as per the prescribed protocol in order to obtain the supernatant containing the active enzymes.
For kinetic characterization, an appropriate amount of enzyme was established by checking linear range near predicted KM values. Then, the rates were measured for a range of substrates in order to establish kcat and KM. In the cases of FadB for the crotonase reaction and FadA in the “forward” thiolase reaction coupled with HBD, substrate saturation could not be established, as such, the kcat/KM for the reaction was determined by dividing the linear slope of Velocity vs. [Substrate] by the amount of enzyme used in the assays. For reactions that could be saturated, Velocity vs. [Substrate] was fitted by the EnzKIN Matlab module (mathworks.com/matlabcentral/fileexchange/26653) to establish Vmax and KM.
Thioesterase activity was monitored by following the production of TNB at 412 nm (ε=4.3 mM^−1 cm^−1)^30. Reactions were carried out in the presence of 100 mM Tris pH 7.5, 200 mM KCl, 25 mM DTNB and 200 μM of the ‘-CoA’ substrate in a volume of 200 μL at 25° C.

[2] = forward thiolase assay (biosynthetic direction), coupled with caHBD; assay type: biochemical; settings: substrate Acetyl-CoA; supernatant fraction; AtoB expressed from pCA24N, FadA from pUCBB-ntH6
Method: (§1) Cultures for enzymatic assays were grown overnight in 100 mL of LB media at 37° C. in 250 mL baffled flasks (Wheaton Industries, Inc., Millville, N.J.) in E. coli BL21 (DE3) cells induced with either 1 mM IPTG (pCA24N, pTrcHis2A) or 1 mM Arabinose (pUCBB-pBAD) at an OD600˜0.6, or expressed constitutively (pUCBB-ntH6). Reactions were monitored on either a Synergy HT plate reader (BioTek Instruments, Inc., Winooski, Vt.) at 25° C. (for reactions monitored at 300 nm or higher) or in a Biomate 5 Spectrophotometer (Thermo Scientific, Waltham, Mass.) for reactions at 263 nm. […]
(§2) For kinetic characterization, his-tagged proteins of AtoB, FadA, FadB, caHBD, egTER were purified from the B-PER supernatant fractions using Talon Metal Affinity Resin (Clontech Laboratories, Inc., Mountain View, Calif.) using gravity purification. […] Enzyme concentration was established by measuring the absorbance at […] and extinction coefficients predicted for each enzyme by the ProtParam program (web.expasy.org/protparam/).
(§3) For kinetic characterization, an appropriate amount of enzyme was established by checking linear range near predicted KM values. Then, the rates were measured for a range of substrates in order to establish kcat and KM. […]

[3] = thiolase activity in the reverse direction (loss of acetoacetyl-CoA at 303 nm); assay type: biochemical; settings: substrate Acetoacetyl-CoA; supernatant fraction; AtoB expressed from pCA24N, FadA from pUCBB-ntH6
Method: as §1, §2, §3

Compound	kcat [1]	Specific Activity [2]	Specific Activity [3]
CC(=O)SCCNC(=O)CCNC(=O)[C@H](O)C(C)(C)COP(=O)(O)OP(=O)(O)OC[C@H]1O[C@@H](n2cnc3c(N)ncnc32)[C@H](O)[C@@H]1OP(=O)(O)O [Acetyl-CoA]	6.9 ± 0.1 s⁻¹	–	–
AtoB: E. coli thiolase with higher specificity for short-chain acyl-CoA molecules	–	0.919 ± 0.002^b μmol/mg/min	0.36 ± 0.05^b μmol/mg/min
